The test has as its target human cyclic nucleotide-gated channel β1-subunit, wild type (human) (UniProt Q14028). The experiment in a line: HEK 293 plasma membrane recruitment assay.

Chain of human cyclic nucleotide-gated channel β1-subunit, wild type (human) (Q14028 whole entry): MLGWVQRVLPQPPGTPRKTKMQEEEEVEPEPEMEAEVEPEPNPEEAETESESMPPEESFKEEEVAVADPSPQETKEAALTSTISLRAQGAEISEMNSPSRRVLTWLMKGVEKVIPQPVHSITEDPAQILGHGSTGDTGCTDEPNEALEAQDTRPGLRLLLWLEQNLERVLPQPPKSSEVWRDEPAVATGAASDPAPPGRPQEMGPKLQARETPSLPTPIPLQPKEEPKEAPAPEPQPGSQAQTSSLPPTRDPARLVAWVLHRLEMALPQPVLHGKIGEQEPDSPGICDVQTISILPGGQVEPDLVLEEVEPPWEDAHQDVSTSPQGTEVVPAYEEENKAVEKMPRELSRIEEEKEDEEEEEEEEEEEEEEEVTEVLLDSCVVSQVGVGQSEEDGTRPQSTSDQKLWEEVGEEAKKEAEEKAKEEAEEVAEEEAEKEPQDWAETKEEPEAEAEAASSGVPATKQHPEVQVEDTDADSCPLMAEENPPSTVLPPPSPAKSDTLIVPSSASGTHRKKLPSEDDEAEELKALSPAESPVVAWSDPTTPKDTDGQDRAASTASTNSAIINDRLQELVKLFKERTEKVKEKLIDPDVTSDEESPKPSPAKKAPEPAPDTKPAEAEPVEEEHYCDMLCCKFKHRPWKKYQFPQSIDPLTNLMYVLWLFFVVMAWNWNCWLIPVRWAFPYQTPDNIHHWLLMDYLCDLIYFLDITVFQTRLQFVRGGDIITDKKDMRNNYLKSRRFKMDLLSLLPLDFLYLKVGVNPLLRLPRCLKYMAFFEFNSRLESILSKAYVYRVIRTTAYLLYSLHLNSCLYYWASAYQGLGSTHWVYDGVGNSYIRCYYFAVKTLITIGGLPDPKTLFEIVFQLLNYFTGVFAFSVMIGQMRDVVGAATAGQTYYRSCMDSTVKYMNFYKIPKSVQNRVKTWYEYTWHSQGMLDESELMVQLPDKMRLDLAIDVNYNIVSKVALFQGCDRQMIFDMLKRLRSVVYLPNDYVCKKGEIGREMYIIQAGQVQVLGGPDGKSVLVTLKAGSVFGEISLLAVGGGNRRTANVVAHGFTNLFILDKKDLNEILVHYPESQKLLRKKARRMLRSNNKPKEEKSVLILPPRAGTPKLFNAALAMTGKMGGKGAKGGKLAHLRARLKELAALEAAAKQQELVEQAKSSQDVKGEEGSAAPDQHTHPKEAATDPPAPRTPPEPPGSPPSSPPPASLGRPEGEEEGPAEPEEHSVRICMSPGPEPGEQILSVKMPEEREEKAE

Take “ankyrin-G fused to green fluorescent protein, O70511 1-2622”: the cells with complete recruitment is 65 % of cells.
